Experimental findings from PMC1635299 are described below.

One series addresses Msx2 (UniProt Q03358 1-267). Kind of series: EMSA. A general note: In EMSA bound probe runs differently from free probe, usually more slowly.
The next series deals with Dlx2 (UniProt P40764 1-332). Kind of series: EMSA.
Chain of Dlx2 (P40764 whole entry): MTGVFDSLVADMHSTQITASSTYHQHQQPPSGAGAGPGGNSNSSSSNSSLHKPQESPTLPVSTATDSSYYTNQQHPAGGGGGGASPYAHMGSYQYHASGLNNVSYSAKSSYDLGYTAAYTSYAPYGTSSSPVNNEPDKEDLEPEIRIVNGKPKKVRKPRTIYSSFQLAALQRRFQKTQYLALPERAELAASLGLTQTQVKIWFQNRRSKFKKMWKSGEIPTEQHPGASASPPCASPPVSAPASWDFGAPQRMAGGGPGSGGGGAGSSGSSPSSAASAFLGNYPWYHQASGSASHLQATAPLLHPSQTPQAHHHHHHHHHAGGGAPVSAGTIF

Chain of Msx2 (Q03358 whole entry): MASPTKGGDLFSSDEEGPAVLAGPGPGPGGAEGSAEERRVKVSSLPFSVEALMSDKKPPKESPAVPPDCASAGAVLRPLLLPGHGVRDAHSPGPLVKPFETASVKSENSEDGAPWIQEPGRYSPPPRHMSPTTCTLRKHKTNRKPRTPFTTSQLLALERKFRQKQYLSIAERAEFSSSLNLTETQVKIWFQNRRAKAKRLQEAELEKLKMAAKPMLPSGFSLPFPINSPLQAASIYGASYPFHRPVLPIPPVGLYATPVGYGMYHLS

B1: Msx2 promoter Dlx2 site probe (dsDNA)
DNA 1: GATCCGGGTAGAGATTAGTTGAATATCCCTTGGGGATC
DNA 2: GATCCCCAAGGGATATTCAACTAATCTCTACCCGGATC
As for B1, the binding result in the series with Msx2 and with Dlx2 was “binds” each time.
